In this experiment the target is GST-fused Par-6 CRIB-PDZ (UniProt O97111). As to the kind of experiment: pull-down.

“Par complex ΔCRIB-PDZ (full length aPKC with the Par-6 PB1 domain) (from UniProt A1Z9X0 1-606)” came in with a fold increase of binding with Par-3 PDZ2 against without of over 20 fold.

Values taken from publication PMC11507878.
